These results are taken from article PMC8018780 (2021).

Ends that are not written are not given here.

What all share (assay): SPR
(In general: Surface plasmon resonance follows binding to a sensor surface in real time, without labels.)

Assay [1] deals with recombinant human transferrin receptor (TfR) protein (human, UniProt P02786 101-760).
Assay [2] has as its target recombinant mouse transferrin receptor (TfR) protein (mouse, UniProt Q62351 1-763).
Assay [3] has as its target low-density lipoprotein receptor-related protein 1 (LRP-1), human (human).

recombinant human transferrin receptor (TfR) protein, sequence (P02786 101-760): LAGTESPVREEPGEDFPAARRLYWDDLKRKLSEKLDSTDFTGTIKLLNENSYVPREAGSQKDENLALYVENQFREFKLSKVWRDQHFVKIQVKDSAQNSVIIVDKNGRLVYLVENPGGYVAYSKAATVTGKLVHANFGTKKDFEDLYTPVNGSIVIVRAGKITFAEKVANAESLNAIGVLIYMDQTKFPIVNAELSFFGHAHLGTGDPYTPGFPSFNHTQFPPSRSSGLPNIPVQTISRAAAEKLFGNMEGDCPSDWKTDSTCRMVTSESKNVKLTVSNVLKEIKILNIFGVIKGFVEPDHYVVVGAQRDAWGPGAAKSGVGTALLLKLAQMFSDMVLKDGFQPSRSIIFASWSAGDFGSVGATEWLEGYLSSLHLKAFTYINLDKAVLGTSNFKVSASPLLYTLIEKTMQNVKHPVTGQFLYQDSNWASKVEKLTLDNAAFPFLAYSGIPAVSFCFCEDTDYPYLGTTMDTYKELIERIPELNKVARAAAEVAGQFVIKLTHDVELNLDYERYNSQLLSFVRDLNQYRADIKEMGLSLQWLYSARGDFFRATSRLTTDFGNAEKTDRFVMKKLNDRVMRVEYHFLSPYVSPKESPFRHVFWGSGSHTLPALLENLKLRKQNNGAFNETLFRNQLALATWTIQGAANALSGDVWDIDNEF
recombinant mouse transferrin receptor (TfR) protein, sequence (Q62351 89-763): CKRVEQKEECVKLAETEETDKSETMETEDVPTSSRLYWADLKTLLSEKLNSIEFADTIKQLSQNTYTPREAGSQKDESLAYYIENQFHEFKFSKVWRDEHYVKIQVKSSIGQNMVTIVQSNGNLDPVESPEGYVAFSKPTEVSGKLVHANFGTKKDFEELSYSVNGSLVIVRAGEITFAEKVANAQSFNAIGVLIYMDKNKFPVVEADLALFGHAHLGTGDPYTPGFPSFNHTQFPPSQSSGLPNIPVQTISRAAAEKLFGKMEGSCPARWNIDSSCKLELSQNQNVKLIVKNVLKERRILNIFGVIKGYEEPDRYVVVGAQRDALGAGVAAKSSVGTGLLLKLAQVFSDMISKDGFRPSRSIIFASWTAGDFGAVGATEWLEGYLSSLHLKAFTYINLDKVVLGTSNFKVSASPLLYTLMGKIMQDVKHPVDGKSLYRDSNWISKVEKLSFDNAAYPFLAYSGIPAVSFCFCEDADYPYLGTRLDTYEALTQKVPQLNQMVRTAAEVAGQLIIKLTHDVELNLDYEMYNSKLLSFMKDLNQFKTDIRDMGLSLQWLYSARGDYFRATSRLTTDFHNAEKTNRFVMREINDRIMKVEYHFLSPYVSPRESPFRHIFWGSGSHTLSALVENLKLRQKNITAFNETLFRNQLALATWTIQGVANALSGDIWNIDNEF

Regarding FRCLVENRGDVPFVTRIR-NH2 [MTfp (peptide 1), peptide derived from melanotransferrin], the Kd worked out at 507 nM in assay [1], 1300 nM in assay [2] and 0.57 nM in assay [3].

GYRPVHNIRGHWAPGK-NH2 [GYR (peptide 2)]: the Kd in assay [1] stood at 171000 nM; in assay [3] it was 100 nM.

As usually defined, the Kd is a measure of binding affinity in units of concentration.
